T1: hTLT-1 ECD-His (human, UniProt Q86YW5 16-162)
T1 construct: Extracellular domain of human TLT-1 with C-terminal His-6 tag; the range 16-168 is computed from these; also called TLT-1-His; His tagged human TLT1
T1 sequence: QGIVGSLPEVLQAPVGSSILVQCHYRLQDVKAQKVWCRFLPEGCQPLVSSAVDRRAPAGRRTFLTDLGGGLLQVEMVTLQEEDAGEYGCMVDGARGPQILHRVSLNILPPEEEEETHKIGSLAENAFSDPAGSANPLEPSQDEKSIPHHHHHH

B1: Fab0074 (Fab)
heavy: QVQLEQSGAELVRPGVSVKISCKGSGYTFTDYSMHWVKQSHAKSLEWIGVISTYYGDVRYNQKFKGKATMTVDKSSSTAYMALARLTSEDSAIYYCARAPMITTGAWFAYWGQGTLVTVSAASTKGPSVFPLAPCSRSTSESTAALGCLVKDYFPEPVTVSWNSGALTSGVHTFPAVLQSSGLYSLSSVVTVPSSSLGTKTYTCNVDHKPSNTKVDKRVESKYGPPC
light: SIVMTQTPKFLLVSAGDRVTITCKASQSVSNDVAWYQQKPGQSPKLLINYASSRYTGIPDRFTGSGYGTDFTFTISTVQAEDLAVYFCQQDYSSPYTFGGGTKLEIERTVAAPSVFIFPPSDEQLKSGTASVVCLLNNFYPREAKVQWKVDNALQSGNSQESVTEQDSKDSTYSLSSTLTLSKADYEKHKVYACEVTHQGLSSPVTKSFNRGECEDQVDPRLIDGK
notes: VH-CH1 (human IgG4) with partial hinge YGPPC (one free Cys); light chain with HPC4 tag; Entries may include signal peptides; also called antiTLT-1 0074Fab-YGPPC; (0051LC-HPC4)
B2: Fab0004 (Fab)
heavy: EVRLVESGGGLVQPGGSLKLSCATSGFTFSDYFMYWIRQTPEKRLEWVAYISNGGDSSSYPDTVKGRFTISRDNAKNTLYLQMSRLKSEDTAMYYCATNKNWDDYYDMDYWGQGTSVTVSSASTKGPSVFPLAPCSRSTSESTAALGCLVKDYFPEPVTVSWNSGALTSGVHTFPAVLQSSGLYSLSSVVTVPSSSLGTKTYTCNVDHKPSNTKVDKRVESKYGPPC
light: DIVVSQSPSSLAVSAGEKVTMSCKSSQSLLNSRTRKNYLAWYQQKPGQSPKLLIYWASTRESGVPDRFTGSGSGTDFTLTISSVQAEDLAVYYCKQSYNLLTFGAGTKLELKRTVAAPSVFIFPPSDEQLKSGTASVVCLLNNFYPREAKVQWKVDNALQSGNSQESVTEQDSKDSTYSLSSTLTLSKADYEKHKVYACEVTHQGLSSPVTKSFNRGECEDQVDPRLIDGK
notes: VH-CH1 (human IgG4) with partial hinge YGPPC; light chain with HPC4 tag; Entries may include signal peptides; also called antiTLT-1 0004Fab-YGPPC; (0023LC-HPC4)
B3: Fab0003 (Fab)
heavy: QVQLQQSGAEPMKPGASVKISCKATGYTFSSHWIEWIKQRPGHGLEWIGEILPGSGNTNYNEKFKGKATFTADTSSNTAYMQLSSLTSEDSAVYYCARGYYGLNYDWYFDVWGAGTTVTVSSASTKGPSVFPLAPCSRSTSESTAALGCLVKDYFPEPVTVSWNSGALTSGVHTFPAVLQSSGLYSLSSVVTVPSSSLGTKTYTCNVDHKPSNTKVDKRVESKYGPPC
light: DIQMTQTTSSLSASLGDRVTISCRASQDISNYLNWYQQKPDGTVKLLIFYTSRLHSGVPSRFSGSGSGTDYSLTISNLEPEDIATYYCQQDTKLPYTFGGGTKLEMKRTVAAPSVFIFPPSDEQLKSGTASVVCLLNNFYPREAKVQWKVDNALQSGNSQESVTEQDSKDSTYSLSSTLTLSKADYEKHKVYACEVTHQGLSSPVTKSFNRGECEDQVDPRLIDGK
notes: VH-CH1 (human IgG4) with partial hinge YGPPC; light chain with HPC4 tag; Entries may include signal peptides; also called antiTLT-1 0003Fab-YGPPC; (0052LC-HPC4)
B4: Fab0084 (Fab)
heavy: EVKLLESGGGLVQPGGSLKLSCAASGFDFSRYWMTWVRQAPGKGLEWIGEINPDSSTINYNPSLKDKFIISRDNAKNTLYLQMSEVRSEDTALYYCASGVFTSWGQGTLVTVSAASTKGPSVFPLAPCSRSTSESTAALGCLVKDYFPEPVTVSWNSGALTSGVHTFPAVLQSSGLYSLSSVVTVPSSSLGTKTYTCNVDHKPSNTKVDKRVESKYGPPC
light: DVVMTQTPLSLPVSLGDQASISCRSSQSLVHRNGNTYFHWALQKPGQSPKLLIYKVSNRFSGVPDRFSGSGSGTDFTLKISRVEAEDLGVYFCSQSTHVPYTFGGGTKLEIKRTVAAPSVFIFPPSDEQLKSGTASVVCLLNNFYPREAKVQWKVDNALQSGNSQESVTEQDSKDSTYSLSSTLTLSKADYEKHKVYACEVTHQGLSSPVTKSFNRGECEDQVDPRLIDGK
notes: VH-CH1 (human IgG4) with partial hinge YGPPC (one free Cys); light chain with HPC4 tag; the ends of the ranges are computed; also called antiTLT-1 0084Fab-YGPPC; (0012VH.T60N-CH1-YGPPC)

The values that follow come from patent US20190083587A1 (Novo Nordisk, published 2019).

For the assay, the target named is T1, hTLT-1 ECD-His. Kind of assay: SPR Biacore, TLT-1-His captured via anti-His mAb, Fab as analyte. Here is the method:
Method: The mAbs of interest were either immobilized directly to a CM5 chip or by capture via a human Fc capture mAb immobilized to a CM5 chip, while TLT-1-His was immobilized by capture via an anti-His mAb CM5 chip for analysis of Fabs.
TLT-1-His capture via anti-His mAb (R&D #MAB050): The anti-His mAb was immobilised to approx 9.000 RU. The TLT-1-His was added to a level of approx 30-40 RU (10 μg/ml diluted in 10 mM Hepes, 150 mM NaCl, 3 mM EDTA, 0.005% Tween-20) using the standard procedure recommended by the supplier. 8-fold dilutions of Fabs from 3 to 0.047 μg/ml were tested for binding to the TLT-1-His. Running and dilution buffer: 10 mM Hepes, 150 mM NaCl, 3 mM EDTA, 0.005% Tween-20. Regeneration was obtained by 3 M MgCl₂.
As for B1, binding was characterised by a dissociation constant (Kd) of 2.38 nM, the off-rate constant (koff) is 0.00798 s⁻¹ and the kon is 3.35e+06 M⁻¹ s⁻¹.
For B2 the same measures were 1.7 nM, 0.00195 s⁻¹ and 1.15e+06 M⁻¹ s⁻¹.
Taken in the same sequence, the figures for B3 were 5.2 nM, 0.00279 s⁻¹ and 536000 M⁻¹ s⁻¹.
For B4 the same measures were 0.99 nM, 0.00524 s⁻¹ and 5.31e+06 M⁻¹ s⁻¹.
